PMC3438196

B1: Apobec3G-GFP MAPPIT bait (pCEL-Apobec3G-GFP) [human] / Apobec3G MAPPIT prey (pMG2-Apobec3G) [human] (parent)
chain 1: MKPHFRNTVERMYRDTFSYNFYNRPILSRRNTVWLCYEVKTKGPSRPPLDAKIFRGQVYSELKYHPEMRFFHWFSKWRKLHRDQEYEVTWYISWSPCTKCTRDMATFLAEDPKVTLTIFVARLYYFWDPDYQEALRSLCQKRDGPRATMKIMNYDEFQHCWSKFVYSQRELFEPWNNLPKYYILLHIMLGEILRHSMDPPTFTFNFNNEPWVRGRHETYLCYEVERMHNDTWVLLNQRRGFLCNQAPHKHGFLEGRHAELCFLDVIPFWKLDLDQDYRVTCFTSWSPCFSCAQEMAKFISKNKHVSLCIFTARIYDDQGRCQEGLRTLAEAGAKISIMTYSEFKHCWDTFVDHQGCPFQPWDGLDEHSQDLSGRLRAILQNQEN
chain 2: B1 chain 1

Variants of: B1
Assay: MAPPIT
Details: with Apobec3G MAPPIT prey (pMG2-Apobec3G) [human]

Row | Variant | percent of parent
1 | chain 1 K270E | 54 % of WT
2 | chain 1 Y222N | 7 % of WT
3 | chain 1 R30L | 10 % of WT
4 | chain 1 R78W | 18 % of WT
5 | chain 1 K63R | 5 % of WT
6 | chain 1 R24G | 5 % of WT
7 | chain 1 E191V | 40 % of WT
8 | chain 1 W269G | 68 % of WT
9 | chain 1 W175R | 28 % of WT
10 | chain 1 D128G | 47 % of WT
11 | chain 1 W94R | 14 % of WT
